T1: 6-Helix-Fd (HIV-1 gp41 (HXB2-like, printed sequence), stabilised)
T1 construct: also called post-fusion six-helix bundle mimic
T1 chain: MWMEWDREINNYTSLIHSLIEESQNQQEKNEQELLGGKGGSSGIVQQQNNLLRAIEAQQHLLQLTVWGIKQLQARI


Target: T2, 5-Helix (HIV-1 group M subtype B, HXB2 (gp41 …, stabilised))
T2 construct: also called designed protein based on HIV-1 gp41
Assay: ELISA
Conditions: one partner purified

| Binder | F_competitive (signal with 40 nM free 5-Helix / signal without) | phage ELISA signal OD450 |
| --- | --- | --- |
| 16F6 bivalent scFv on phage (scFv, V domains shown) VH: QVQLVQSGAEVRKPGASVKVSCKASGDTFSSYAISWVRQAPGQGLEWMGGIIPIFGTANYAQAFQGRVTITANESTSTAYMELSSLRSEDTAIYYCARDNPTLLGSDYWGAGTLVTVSS VL: DIQMTQSPSTLSASIGDRVTITCRASESISSILAWYQQKPGKAPKLLISNASRLASGAPSRFSGSGSGTDFTLTISSLQPDDFATYYCQQRSNYPFTFGGGTKLEIK | 0.8 fraction | 3 OD450 |
| 16F5 bivalent scFv on phage (scFv, V domains shown) VH: QVQLVQSGAEVRKPGASVKVSCKASGDTFSSYAISWVRQAPGQGLEWMGGIIPIFGTANYAQAFQGRVTITANESTSTAYMELSSLRSEDTAIYYCARDNPTLLGSDYWGAGTLVTVSS VL: DIQMTQSPSTLSASIGDRVTITCRASENINDHLAWYQQKPGKAPKLLISRAYRLASGAPSRFSGSGSGTDFTLTISSLQPDDFATYYCQQYADTPFTFGGGTKLEIK | 0.2 fraction | 3 OD450 |
| 25A5 bivalent scFv on phage (scFv, V domains shown) VH: QVQLVQSGAEVRKPGASVKVSCKASGDTFSSYAISWVRQAPGQGLEWMGGIIPIFGTANYAQAFQGRVTITANESTSTAYMELSSLRSEDTAIYYCARDNPTLLGSDYWGAGTLVTVSS VL: DIQMTQSPSTLSASIGDRVTITCRASESIRSHLAWYQQKPGKAPKLLISRASRLASGAPSRFSGSGSGTDFTLTISSLQPDDFATYYCQQSSDYPHTFGGGTKLEIK | 0.1 fraction | 3.5 OD450 |
| 16B7 bivalent scFv on phage (scFv, V domains shown) VH: QVQLVQSGAEVRKPGASVKVSCKASGDTFSSYAISWVRQAPGQGLEWMGGIIPIFGTANYAQAFQGRVTITANESTSTAYMELSSLRSEDTAIYYCARDNPTLLGSDYWGAGTLVTVSS VL: DIQMTQSPSTLSASIGDRVTITCRASENILRLLAWYQQKPGKAPKLLIYYASSLASGAPSRFSGSGSGTDFTLTISSLQPDDFATYYCQQRADYPYTFGGGTKLEIK | 0.6 fraction | 3 OD450 |
| 2H10 bivalent scFv on phage (scFv, V domains shown) VH: QVQLVQSGAEVRKPGASVKVSCKASGDTFSSYAISWVRQAPGQGLEWMGGIIPIFGTANYAQAFQGRVTITANESTSTAYMELSSLRSEDTAIYYCARDNPTLLGSDYWGAGTLVTVSS VL: DIQMTQSPSTLSASIGDRVTITCRASEDIYRSLAWYQQKPGKAPKLLISRASRLASGAPSRFSGSGSGTDFTLTISSLQPDDFATYYCQQYSNYPLTFGGGTKLEIK | 0.1 fraction | 1.9 OD450 |
| 25A6 bivalent scFv on phage (scFv, V domains shown) VH: QVQLVQSGAEVRKPGASVKVSCKASGDTFSSYAISWVRQAPGQGLEWMGGIIPIFGTANYAQAFQGRVTITANESTSTAYMELSSLRSEDTAIYYCARDNPTLLGSDYWGAGTLVTVSS VL: DIQMTQSPSTLSASIGDRVTITCRASEGIYDGLAWYQQKPGKAPKLLISRAYYLASGAPSRFSGSGSGTDFTLTISSLQPDDFATYYCQQRANYPHTFGGGTKLEIK | 0.1 fraction | 3.1 OD450 |
| 16E12 bivalent scFv on phage (scFv, V domains shown) VH: QVQLVQSGAEVRKPGASVKVSCKASGDTFSSYAISWVRQAPGQGLEWMGGIIPIFGTANYAQAFQGRVTITANESTSTAYMELSSLRSEDTAIYYCARDNPTLLGSDYWGAGTLVTVSS VL: DIQMTQSPSTLSASIGDRVTITCRASEGIRRSLAWYQQKPGKAPKLLISNASHLASGAPSRFSGSGSGTDFTLTISSLQPDDFATYYCQQYYNYPRTFGGGTKLEIK | 0.1 fraction | 3.1 OD450 |
| 16E8 bivalent scFv on phage (scFv, V domains shown) VH: QVQLVQSGAEVRKPGASVKVSCKASGDTFSSYAISWVRQAPGQGLEWMGGIIPIFGTANYAQAFQGRVTITANESTSTAYMELSSLRSEDTAIYYCARDNPTLLGSDYWGAGTLVTVSS VL: DIQMTQSPSTLSASIGDRVTITCRASESIYGSLAWYQQKPGKAPKLLISHASHLASGAPSRFSGSGSGTDFTLTISSLQPDDFATYYCQQNDTYPHTFGGGTKLEIK | 0.4 fraction | 3 OD450 |
| 25B8 bivalent scFv on phage (scFv, V domains shown) VH: QVQLVQSGAEVRKPGASVKVSCKASGDTFSSYAISWVRQAPGQGLEWMGGIIPIFGTANYAQAFQGRVTITANESTSTAYMELSSLRSEDTAIYYCARDNPTLLGSDYWGAGTLVTVSS VL: DIQMTQSPSTLSASIGDRVTITCRASENINRNLAWYQQKPGKAPKLLISRASRLASGAPSRFSGSGSGTDFTLTISSLQPDDFATYYCQQRYNYPYTFGGGTKLEIK | 0.2 fraction | 2.9 OD450 |
| 25E1 bivalent scFv on phage (scFv, V domains shown) VH: QVQLVQSGAEVRKPGASVKVSCKASGDTFSSYAISWVRQAPGQGLEWMGGIIPIFGTANYAQAFQGRVTITANESTSTAYMELSSLRSEDTAIYYCARDNPTLLGSDYWGAGTLVTVSS VL: DIQMTQSPSTLSASIGDRVTITCRASEDIGGSLAWYQQKPGKAPKLLISHAYSLASGAPSRFSGSGSGTDFTLTISSLQPDDFATYYCQQHATYPHTFGGGTKLEIK | 0.1 fraction | 3 OD450 |
| 25F12 bivalent scFv on phage (scFv, V domains shown) VH: QVQLVQSGAEVRKPGASVKVSCKASGDTFSSYAISWVRQAPGQGLEWMGGIIPIFGTANYAQAFQGRVTITANESTSTAYMELSSLRSEDTAIYYCARDNPTLLGSDYWGAGTLVTVSS VL: DIQMTQSPSTLSASIGDRVTITCRASEGIIGHLAWYQQKPGKAPKLLIYNASRLASGAPSRFSGSGSGTDFTLTISSLQPDDFATYYCQQRDDYPLTFGGGTKLEIK | 0.2 fraction | 2.7 OD450 |
| 25C4 bivalent scFv on phage (scFv, V domains shown) VH: QVQLVQSGAEVRKPGASVKVSCKASGDTFSSYAISWVRQAPGQGLEWMGGIIPIFGTANYAQAFQGRVTITANESTSTAYMELSSLRSEDTAIYYCARDNPTLLGSDYWGAGTLVTVSS VL: DIQMTQSPSTLSASIGDRVTITCRASESILGSLAWYQQKPGKAPKLLIYRASHLASGAPSRFSGSGSGTDFTLTISSLQPDDFATYYCQQYSNYPLTFGGGTKLEIK | 0.1 fraction | 2.5 OD450 |
| 16E3 bivalent scFv on phage (scFv, V domains shown) VH: QVQLVQSGAEVRKPGASVKVSCKASGDTFSSYAISWVRQAPGQGLEWMGGIIPIFGTANYAQAFQGRVTITANESTSTAYMELSSLRSEDTAIYYCARDNPTLLGSDYWGAGTLVTVSS VL: DIQMTQSPSTLSASIGDRVTITCRASEGIRYGLAWYQQKPGKAPKLLISRASRLASGAPSRFSGSGSGTDFTLTISSLQPDDFATYYCQQHYAYPHTFGGGTKLEIK | 0.7 fraction | 3 OD450 |
| 16D10 bivalent scFv on phage (scFv, V domains shown) VH: QVQLVQSGAEVRKPGASVKVSCKASGDTFSSYAISWVRQAPGQGLEWMGGIIPIFGTANYAQAFQGRVTITANESTSTAYMELSSLRSEDTAIYYCARDNPTLLGSDYWGAGTLVTVSS VL: DIQMTQSPSTLSASIGDRVTITCRASENIRGSLAWYQQKPGKAPKLLIYRASRLASGAPSRFSGSGSGTDFTLTISSLQPDDFATYYCQQHSDYPHTFGGGTKLEIK | 0.7 fraction | 3 OD450 |
| 25C5 bivalent scFv on phage (scFv, V domains shown) VH: QVQLVQSGAEVRKPGASVKVSCKASGDTFSSYAISWVRQAPGQGLEWMGGIIPIFGTANYAQAFQGRVTITANESTSTAYMELSSLRSEDTAIYYCARDNPTLLGSDYWGAGTLVTVSS VL: DIQMTQSPSTLSASIGDRVTITCRASEDIHDYLAWYQQKPGKAPKLLISRASRLASGAPSRFSGSGSGTDFTLTISSLQPDDFATYYCQQNDSYPYTFGGGTKLEIK | 0.5 fraction | 0.7 OD450 |
| 25B4 bivalent scFv on phage (scFv, V domains shown) VH: QVQLVQSGAEVRKPGASVKVSCKASGDTFSSYAISWVRQAPGQGLEWMGGIIPIFGTANYAQAFQGRVTITANESTSTAYMELSSLRSEDTAIYYCARDNPTLLGSDYWGAGTLVTVSS VL: DIQMTQSPSTLSASIGDRVTITCRASEGIRNGLAWYQQKPGKAPKLLISRASHLASGAPSRFSGSGSGTDFTLTISSLQPDDFATYYCQQYYAYPHTFGGGTKLEIK | 0.1 fraction | 2.9 OD450 |
| 16G6 bivalent scFv on phage (scFv, V domains shown) VH: QVQLVQSGAEVRKPGASVKVSCKASGDTFSSYAISWVRQAPGQGLEWMGGIIPIFGTANYAQAFQGRVTITANESTSTAYMELSSLRSEDTAIYYCARDNPTLLGSDYWGAGTLVTVSS VL: DIQMTQSPSTLSASIGDRVTITCRASEGIRRSLAWYQQKPGKAPKLLISNASHLASGAPSRFSGSGSGTDFTLTISSLQPDDFATYYCQQYYNYPRTFGGGTKLEIK | 0.3 fraction | 2.3 OD450 |

Target: T1, 6-Helix-Fd
Assay: ELISA; competitive phage ELISA, on-phage bivalent scFv: binding to immobilised 5-Helix inhibited by free 5-Helix or free 6-Helix-Fd (concentrations for the trimer); apparent
Conditions: one partner purified

| Binder | IC50 |
| --- | --- |
| D5 bivalent scFv (biv-scFv) displayed on M13 phage (scFv, V domains shown) VH: QVQLVQSGAEVRKPGASVKVSCKASGDTFSSYAISWVRQAPGQGLEWMGGIIPIFGTANYAQAFQGRVTITANESTSTAYMELSSLRSEDTAIYYCARDNPTLLGSDYWGAGTLVTVSS VL: DIQMTQSPSTLSASIGDRVTITCRASEGIYHWLAWYQQKPGKAPKLLIYKASSLASGAPSRFSGSGSGTDFTLTISSLQPDDFATYYCQQYSNYPLTFGGGTKLEIK | 11 nM |
| 25B8 bivalent scFv on phage (scFv, V domains shown) VH: QVQLVQSGAEVRKPGASVKVSCKASGDTFSSYAISWVRQAPGQGLEWMGGIIPIFGTANYAQAFQGRVTITANESTSTAYMELSSLRSEDTAIYYCARDNPTLLGSDYWGAGTLVTVSS VL: DIQMTQSPSTLSASIGDRVTITCRASENINRNLAWYQQKPGKAPKLLISRASRLASGAPSRFSGSGSGTDFTLTISSLQPDDFATYYCQQRYNYPYTFGGGTKLEIK | ~100 nM |

Target: T2, 5-Helix
Assay: as above
Conditions: one partner purified

| Binder | IC50 |
| --- | --- |
| D5 bivalent scFv (biv-scFv) displayed on M13 phage (scFv, V domains shown) VH: QVQLVQSGAEVRKPGASVKVSCKASGDTFSSYAISWVRQAPGQGLEWMGGIIPIFGTANYAQAFQGRVTITANESTSTAYMELSSLRSEDTAIYYCARDNPTLLGSDYWGAGTLVTVSS VL: DIQMTQSPSTLSASIGDRVTITCRASEGIYHWLAWYQQKPGKAPKLLIYKASSLASGAPSRFSGSGSGTDFTLTISSLQPDDFATYYCQQYSNYPLTFGGGTKLEIK | 0.1 nM |
| 25B8 bivalent scFv on phage (scFv, V domains shown) VH: QVQLVQSGAEVRKPGASVKVSCKASGDTFSSYAISWVRQAPGQGLEWMGGIIPIFGTANYAQAFQGRVTITANESTSTAYMELSSLRSEDTAIYYCARDNPTLLGSDYWGAGTLVTVSS VL: DIQMTQSPSTLSASIGDRVTITCRASENINRNLAWYQQKPGKAPKLLISRASRLASGAPSRFSGSGSGTDFTLTISSLQPDDFATYYCQQRYNYPYTFGGGTKLEIK | 3.1 nM |
